Article PMC2953525, “Subtle Alterations in PCNA-Partner Interactions Severely Impair DNA Replication and Repair” (PLoS Biology, 2010)

Key:
Conditions in all cases: partners not purified
[1] = target: T1, pol30-79 (yeast, UniProt P15873 1-258, IDCL DIDADFLKIEEL to DIDADFAKAEEL); test: two-hybrid; quantitative Y2H: generation time of the YRG2 strains in liquid SC-Leu-Trp-His, given relative to cells expressing WT PCNA; average of at least 3 experiments
T1 construct: PCNA (POL30), yeast; the changes are then L126A and I128A; also called PCNA79; source: yeast two-hybrid fusion (pAD-GAL4, strain YRG2)
T1 sequence: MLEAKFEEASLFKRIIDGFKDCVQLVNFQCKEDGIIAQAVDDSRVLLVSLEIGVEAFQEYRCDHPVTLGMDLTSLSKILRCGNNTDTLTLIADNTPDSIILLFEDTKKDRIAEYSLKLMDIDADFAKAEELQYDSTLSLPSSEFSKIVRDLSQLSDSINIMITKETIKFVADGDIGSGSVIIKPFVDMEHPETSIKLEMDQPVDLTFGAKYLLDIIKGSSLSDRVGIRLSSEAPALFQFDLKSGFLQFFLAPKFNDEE

[2] = target: T2, pol30-Pol32E5 (yeast, UniProt P15873 1-258, IDCL DIDADFLKIEEL to DADNDFLKISEL); test: as above
T2 construct: PCNA (POL30), yeast; source: yeast two-hybrid fusion (pAD-GAL4, strain YRG2)
T2 sequence: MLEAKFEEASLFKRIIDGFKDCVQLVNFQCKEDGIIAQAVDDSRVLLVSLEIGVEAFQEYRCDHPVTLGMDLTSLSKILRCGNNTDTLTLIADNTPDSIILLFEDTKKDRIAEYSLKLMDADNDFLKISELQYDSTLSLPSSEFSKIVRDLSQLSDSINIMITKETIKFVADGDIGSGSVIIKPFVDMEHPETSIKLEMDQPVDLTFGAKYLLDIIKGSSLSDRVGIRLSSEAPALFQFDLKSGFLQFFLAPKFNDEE

[3] = target: T3, pol30-Rad30E2 (yeast, UniProt P15873 1-258, IDCL DIDADFLKIEEL to DDDWDFLKILEL); test: as above
T3 construct: PCNA (POL30), yeast; source: yeast two-hybrid fusion (pAD-GAL4, strain YRG2)
T3 sequence: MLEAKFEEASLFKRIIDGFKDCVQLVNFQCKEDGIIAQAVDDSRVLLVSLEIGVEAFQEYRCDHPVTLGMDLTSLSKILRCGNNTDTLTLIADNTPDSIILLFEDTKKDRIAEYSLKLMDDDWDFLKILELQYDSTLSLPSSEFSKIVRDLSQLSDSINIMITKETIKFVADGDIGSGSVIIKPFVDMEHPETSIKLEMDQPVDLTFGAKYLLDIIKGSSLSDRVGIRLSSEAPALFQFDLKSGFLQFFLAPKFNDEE

[4] = target: T4, pol30-Pol32E9 (yeast, UniProt P15873 1-258, IDCL DIDADFLKIEEL to DNDVDSLKIIEL); test: as above
T4 construct: PCNA (POL30), yeast; source: yeast two-hybrid fusion (pAD-GAL4, strain YRG2)
T4 sequence: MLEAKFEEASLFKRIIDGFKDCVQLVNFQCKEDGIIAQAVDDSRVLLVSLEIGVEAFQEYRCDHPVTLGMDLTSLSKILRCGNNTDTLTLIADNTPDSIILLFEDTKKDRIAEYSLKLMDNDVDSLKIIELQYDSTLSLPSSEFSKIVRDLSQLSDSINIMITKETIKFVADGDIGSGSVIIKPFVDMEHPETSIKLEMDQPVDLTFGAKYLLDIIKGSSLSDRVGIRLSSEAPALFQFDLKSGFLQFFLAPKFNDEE

[5] = target: T5, pol30-Rad27L1 (yeast, UniProt P15873 1-258, IDCL DIDADFLKIEEL to D––VDILKIGEL); test: two-hybrid; pAD-GAL4-PCNA WT or mutant (called bait) and pBD-GAL4-partner (called prey) in strain YRG2; 10-fold serial dilutions spotted on SC-Leu-Trp-His plates, 30°C, 3 d; growth similar to WT PCNA is denoted 1
T5 construct: PCNA (POL30), yeast; two residues after the first aspartic acid of the IDCL are deleted; source: yeast two-hybrid fusion (pAD-GAL4, strain YRG2)
T5 sequence: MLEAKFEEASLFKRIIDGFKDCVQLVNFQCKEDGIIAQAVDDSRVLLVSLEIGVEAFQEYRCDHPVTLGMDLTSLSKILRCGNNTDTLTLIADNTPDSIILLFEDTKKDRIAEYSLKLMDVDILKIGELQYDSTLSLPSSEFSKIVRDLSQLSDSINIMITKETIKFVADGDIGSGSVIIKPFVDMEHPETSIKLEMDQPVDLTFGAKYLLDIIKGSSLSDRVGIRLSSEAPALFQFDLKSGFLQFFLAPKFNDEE

[6] = target: T6, pol30-Rad27L2 (yeast, UniProt P15873 1-258, IDCL DIDADFLKIEEL to D––VDTLKITEL); test: as above
T6 construct: PCNA (POL30), yeast; two residues after the first aspartic acid of the IDCL are deleted; source: yeast two-hybrid fusion (pAD-GAL4, strain YRG2)
T6 sequence: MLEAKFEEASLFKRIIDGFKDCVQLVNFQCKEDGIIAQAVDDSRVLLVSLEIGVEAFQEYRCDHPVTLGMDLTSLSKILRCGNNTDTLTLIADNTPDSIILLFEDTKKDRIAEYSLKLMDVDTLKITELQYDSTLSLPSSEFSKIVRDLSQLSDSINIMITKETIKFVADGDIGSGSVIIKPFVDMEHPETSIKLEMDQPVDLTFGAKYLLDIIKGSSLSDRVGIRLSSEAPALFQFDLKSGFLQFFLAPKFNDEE

[7] = target: T7, pol30-Rad30E9 (yeast, UniProt P15873 1-258, IDCL DIDADFLKIEEL to DNDWDFLKIDEL); test: two-hybrid; quantitative Y2H: generation time of the YRG2 strains in liquid SC-Leu-Trp-His, given relative to cells expressing WT PCNA; average of at least 3 experiments
T7 construct: PCNA (POL30), yeast; also called Pol30-Rad30E9p; source: yeast two-hybrid fusion (pAD-GAL4, strain YRG2)
T7 sequence: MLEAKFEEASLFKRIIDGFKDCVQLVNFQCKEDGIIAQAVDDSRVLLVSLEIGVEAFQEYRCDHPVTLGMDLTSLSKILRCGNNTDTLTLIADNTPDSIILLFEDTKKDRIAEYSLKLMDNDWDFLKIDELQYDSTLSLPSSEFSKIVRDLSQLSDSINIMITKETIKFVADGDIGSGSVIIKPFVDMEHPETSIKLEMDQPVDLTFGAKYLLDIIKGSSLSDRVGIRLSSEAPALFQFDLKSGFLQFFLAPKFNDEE

| Binder | fold change in affinity relative to WT PCNA (Y2H generation time) [1] [fold] | fold change in affinity relative to WT PCNA (Y2H generation time) [2] [fold] | fold change in affinity relative to WT PCNA (Y2H generation time) [3] [fold] | fold change in affinity relative to WT PCNA (Y2H generation time) [4] [fold] | fold change in affinity relative to WT PCNA (Y2H) [5] [fold] | fold change in affinity relative to WT PCNA (Y2H) [6] [fold] | fold change in affinity relative to WT PCNA (Y2H generation time) [7] [fold] |
| --- | --- | --- | --- | --- | --- | --- | --- |
| Pol32 (natural protein, yeast, UniProt P47110 1-350, looked up, Pol32 (DNA polymerase subunit), yeast; also called pBD-Pol32; source: yeast two-hybrid fusion (pBD-GAL4, strain YRG2)) MDQKASYFINEKLFTEVKPVLFTDLIHHLKIGPSMAKKLMFDYYKQTTNAKYNCVVICCYKDQTIKIIHDLSNIPQQDSIIDCFIYAFNPMDSFIPYYDIIDQKDCLTIKNSYELKVSESSKIIERTKTLEEKSKPLVRPTARSKTTPEETTGRKSKSKDMGLRSTALLAKMKKDRDDKETSRQNELRKRKEENLQKINKQNPEREAQMKELNNLFVEDDLDTEEVNGGSKPNSPKETDSNDKDKNNDDLEDLLETTAEDSLMDVPKIQQTKPSETEHSKEPKSEEEPSSFIDEDGYIVTKRPATSTPPRKPSPVVKRALSSSKKQETPSSNKRLKKQGTLESFFKRKAK | 0.3 | 1.5 | 0.4 | 1.3 |  |  |  |
| Rad30 (natural protein, yeast, UniProt Q04049 1-632, looked up, Rad30 (DNA polymerase), yeast; also called pBD-Rad30; source: yeast two-hybrid fusion (pBD-GAL4, strain YRG2)) MSKFTWKELIQLGSPSKAYESSLACIAHIDMNAFFAQVEQMRCGLSKEDPVVCVQWNSIIAVSYAARKYGISRMDTIQEALKKCSNLIPIHTAVFKKGEDFWQYHDGCGSWVQDPAKQISVEDHKVSLEPYRRESRKALKIFKSACDLVERASIDEVFLDLGRICFNMLMFDNEYELTGDLKLKDALSNIREAFIGGNYDINSHLPLIPEKIKSLKFEGDVFNPEGRDLITDWDDVILALGSQVCKGIRDSIKDILGYTTSCGLSSTKNVCKLASNYKKPDAQTIVKNDCLLDFLDCGKFEITSFWTLGGVLGKELIDVLDLPHENSIKHIRETWPDNAGQLKEFLDAKVKQSDYDRSTSNIDPLKTADLAEKLFKLSRGRYGLPLSSRPVVKSMMSNKNLRGKSCNSIVDCISWLEVFCAELTSRIQDLEQEYNKIVIPRTVSISLKTKSYEVYRKSGPVAYKGINFQSHELLKVGIKFVTDLDIKGKNKSYYPLTKLSMTITNFDIIDLQKTVVDMFGNQVHTFKSSAGKEDEEKTTSSKADEKTPKLECCKYQVTFTDQKALQEHADYHLALKLSEGLNGAEESSKNLSFGEKRLLFSRKRPNSQHTATPQKKQVTSSKNILSFFTRKK |  |  | 1.4 |  | 0.4 | 0.5 | 1.6 |
